Test results published in patent publication US20210069338A1.

Target: human NPY2 receptor (HEK293/hNPY2R cells) (human) (UniProt P49146)
Test: cell-based or functional assay

human NPY2 receptor (HEK293/hNPY2R cells) (human), sequence (P49146 whole entry): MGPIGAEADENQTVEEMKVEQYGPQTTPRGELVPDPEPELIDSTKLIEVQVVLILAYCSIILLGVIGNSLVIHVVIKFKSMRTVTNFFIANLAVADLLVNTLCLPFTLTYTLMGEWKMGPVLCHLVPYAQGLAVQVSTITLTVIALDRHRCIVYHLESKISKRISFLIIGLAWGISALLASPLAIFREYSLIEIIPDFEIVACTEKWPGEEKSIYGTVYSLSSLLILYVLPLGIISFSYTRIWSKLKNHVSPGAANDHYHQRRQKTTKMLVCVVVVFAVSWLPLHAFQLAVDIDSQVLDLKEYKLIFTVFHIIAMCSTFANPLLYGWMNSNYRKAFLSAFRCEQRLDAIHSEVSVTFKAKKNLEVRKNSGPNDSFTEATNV
PYY(3-36) wild-type (peptide; modification not given), sequence (chain, as listed by the source): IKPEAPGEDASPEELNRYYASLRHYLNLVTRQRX

- EC50 [nM], cAMP assay (inhibition of Forskolin stimulated cAMP accumulation in HEK293/hNPY2R cells), day 1: 0.09 nM
- EC50 [nM], cAMP assay (inhibition of Forskolin stimulated cAMP accumulation in HEK293/hNPY2R cells), day 2: 0.1 nM
Substance: PYY(3-36) wild-type (peptide; modification not given)
